Assay: label from the status in PepcDB records

MHEKTKFRLHSHDVPYGSGSGQQSVTGFPGVVDSNSYWIVKPVPGTTEKQGDAVKSGATIRLQHMKTRKWLHSHLHASPISGNLEVSCFGDDTNSDTGDHWKLIIEGSGKTWKQDQRVRLQHIDTSGYLHSHDKKYQRIAGGQQEVCGIREKKADNIWLAAEGVYLPLNESSK
protein production: not failed

MHERTGLWRGITAVGALLLAVAIMAGTIMETYRTSLDAFVGTRSQRTVTDQSADNGDSWTYKSEYKTAKEAYEGFKKTAMDEAQETYVLLKNSDNALPLSKSAKITMFGVRSYAPVYGSSGGSVTDGNSTVEITKAFEEEGFQINPSMLKAYQNYFKDKKWTTPQFGGGILPEYEDITKYNDPCELSLDELAKLNPEYKSQYGEYQDAAIVVVGRPAGENGDGYYPGQDGLADGVNTVTGNILSLSDEEMALVNEAKANFSKVIVLVNSTNPMEIANLQDDPDIDAIMWIGYPGAYGFYGVADVLNGTVSPSAHLGDVMAKNSAVAPAMSNYGNVAWKNASDFSEDAAVNSYLMEAEGIYTGYRYYETRYADIVMGNGGDTASAGTYAASDGTVATADGTWDYANEVVYPFGYGLSYTTFEQKLDGVEIKGDKKTAVATVTVKNTGSVEGKSVIQLYASVPYTDYDKKNGVGKSAIQLMDFEKTNALKPGDSQTITMTVDLSNLASYDSNKAKTYIVDPGDYYFSIGDDVHDALNNVLAAQGYSESDGMTAAGDKTKTYTWSWDGGVDADTFATSSTGTKITNQLSDGKYATDYNAFDKGAVTYLTRSDWNGTFPKTYSGISANEEVSKLLNNDFIDLKSDGDVSDITIGDTSSSLTLNDMKGASYDDERWDELTSKVSVKEFMHFAETAFHAIGAIDSVGLQEMTTDDGPGGSDSHYLNEGQYQGKAYADADDYADKSSRVAPSPTNLAYSWNKELAYRNGEVILGESSLVFRLPIMIAPAMNLHRHAYNSRGVEYYSEDPILSGYIGSAVVQGAQSKGVLVNVKHLAFNDQEINRSGIATFMSEQKAREMELRNFQQAFEANGKPASFESDDAKKNTYTQGALGVMTSYNRIGAVASSANAAVMVNILRDEWGFTGYNVTDFTSVSPHAAPKESVLAGTSAFCGFGNQGVKYWDAATLSKDRDMLLAIKQNMHYSLWAIANSNAMNGVNSSTHTENVMTWWRAVYLGVIAASGVVTLIGLAGYTTTRIRPARNADNGPTAASK
protein production: failed

MHFRLSFISIIYRLLGILLASAFVGWLFDYVLLVMLATSIFLLVWHYHHLFKLINWIWQSKALSPPQAKGVWGYLYDGLYRQVKQQRNKQKQLNEKIRRFRDGAEALPDAALMLSEELTIEWGNKKAQRLLGVRWPDDFGQRIDNLLRAPEFSDYLAHENFEYPCLLVSPIHSDVQLEIRLMAYGSEHVLLLARDISNLQRLEDMRRDFVANVSHELKTPLTVVRGYVEMIQASPEAFDPHWQKAFQTIEGQVSRMDRLVEQLLNLAKVENNSDDEKQCVNMAQLIRTLVDEVTWLNQEKQHQIMLDISTDVSVLGFETELKSACANLLSNAIAYTPPKGCIEVSWRLMGNKAIFSVKDNGDGIKPEHVNRLTERFYRIDRSRSRDTGGSGLGLAIVKHVLHHHQAELIINSHWGQGSEFSIYFDPSTLSNPSR
protein production: failed

MHGTRRTRKDSPCMPAIHRAPLLRRREFRHEDRNGSLAPALDLIAWSRSAFGWLAHQPYLLLSLTSLFWAGNIVLGRAVAGHVPPVTLSCARWVGAMLLLLPFAWPHLRHDWRKLRAQWKLMIVLSATGFAINNALSYWGLQYTQALNALLMQSSGPLFVALWSLLLFGVRLTWMQATGIALSLLGVLTIILRGDFAALAGIELNRGDLMVAGALCAFGLYSALMPKRPATHPLSLIVVTTGCGALLLLPFSAWEYASGVRPSADWISVATLAYVVIFPSMLAYLCFNRGVALIGPNRSAPFLHLMPVFGSVMAIVLLGEKPELFHLAGYAMVVAGVFIAARR
protein production: failed

MHIAILGCTSQIAKDLIRSIYVYSQHDLILFGRTPQQTQSWLAENGITSRCSVNQYEEYPNIDHDVVINFVGIGDPSKAAAMGGSIFDITLHYDELVLNELKKYPDRRYLFLSSGAAYGSSFLEPADADTPSTININNLLPQEYYSVAKLHAECRHRSLKEYAIVDLRVFNVFSRTQDLEARFFITDIVRSIHSGTELITSSDMIYRDFMHPKDFYQLVERVLNAPPMNISLDCYSRQPVDKTTLLDEMKKTFGLSYRVKESNMSINATGIKPCYYSKNKRAAEFGYLPEYSSLETIIEETNAILGLQKTVLEHHHHHH
protein production: not failed

MHILYFLFPKVTFNSFSTPIFFTLISFYSLVTFFPLLSLFIRTSIPSNLINMIIQNSIKGVFVHLDVKMRFFLDFYFLNSLICYSNYIVPFLLAHTLNLITPSVLTTVECDF
protein production: failed

MHISFIIPAFNEEQLIEPCLRSITDAVAANRSYGYTSEIIVVDNNSTDATAQLAKQAGAQVVFEPVNHIARARTAGAGAARGDWLVFMDADCLLNAGLVGDIFELIRQGRHIGAGSTLYMPGQPWWAEMLLRIWTFLSVQLGWAAGALIVCNAAAFREVGGFDLTLYAAEEIDLSQKLKKYGRKRKLKFAILNAHPLETSSRKTQLYSGWEIVGQFLRLVLSPLGTLRNKKKLPMWYDGRRLEHHHHHH
protein production: not failed

MHKDELLELHEQMVTIMEYFRDDMDSVDPDLFDAYQELDVRPSDVHKSKSEHKHAVFVLGNSLATAMSEDEFSDAGRVSKRMKELAEDAERKLLEHHHHHH
protein production: not failed

MHKKTVILIIFAILGGVMGAAYFTRAWLVMGITSRLVNNIIVNILLGAIIFLILGSLFAGVLVRLINRIEAYLNRQNPMTLIFGSLLTIVGLALALLISQFLFRVPSFFIGTVIPWILMILFGYFGYRIGARLSKIRLEEWRKLFQSRSKKAEEETDKQVLDKETEPNFHHYKILDTNILIDGRIYDLAKTGFLEGTLLVPNFVLYELQYIADSSDSVKRVRGRRGLDILNKLQNEHIMPIEMYEGDFEDIPEVDSKLIALAKQNGGVIVTNDYNLNKVIQFQNVQVLNINSLANALKPRVIPGENLHVMVVKNGTERQQGVAYLDDGTMVVVEDGRYFINKQLDVVVTSAIQTDAGRMIFAKPLHSNKNIEEQANAGKEGKGSNSAKPTKRSR
protein production: failed

MHLATLASGSSGNSIVVGHEKRNFLVDCGISLKATLHNLAILDIAPSEIEGIFITHEHSDHIKGVGAVARKLKIPIYASAKIWDELNPSIGKLKDEQRVVVKDAFTCAGLRVRVFPTSHDSQESFGVRVEVEQPVKGRSRAIGIATDTGIVTEEMHQALKGCDALVVEANHDREMLWQGGYPWYLKKRISGNYGHLENSQLAEGLLQWIEGNTQRIVLAHLSDENNTPETALSTILRILKESRVAKENRDLRLRVAPRYTPHELIVLEEY
protein production: failed

MHLKEILAQFSFFTAIPVKSSASLEEIAESSYISPIIVGISLGLIESVAYLILYRILGELTGIVLLGIIELLRGFNHLDGLLDLGDALMIRGNREKKIKALKDVEVGSGGIGLLLVYLSIQIVALLKLDFSLYTIFYLISSNVLSMSLSLYILSTISPIPESNLGRIFHDKLKGKSTILLLELIPFISLYNVIVFIIFYMIMYKICGSLGGSSGDIAGASITLSFPLFLITDEITNLNYSLLSILCYLFSHLH
protein production: failed

MHLPPKLALTTGVLLVALPLATPAWGQPPTPASPLVQQLNNGNWLDPKEAETLRDELYYQRAIHAYMTMLPALNVIGMRDGSEKVFGAGYNVLPVWKERMDARTMVPTPNADVIYSMSYLDLKKTGPLVVKAPANVIGMFTDFFQRTLTDVGAIGPDRARGGLYLILPPDYDGHVPSSYFVVKSPTYNVFLFFRTIMGQGKGKPDPAPAVKAAETTRVYPLWAEEKDIKPMEFPDGSGKHINMMYPVDQEYWTKLKEFVDYEPVSAIDPELRGVLASIGIVKGQPFKPTAREQELLKRAVETAPKMILAMRQLGREDKRHLYYKDRQWERAWAGATAEWMQDSYLDVNQRATFFQIAYSSAPAMVMRTTGAGSKYPFTARDANGEFLNGSATYKLRMPPDAPAALFWAVTAYNVTDGTMPETDQLMPSTNGYYDIPKQKDGSTEIWFGPQKPADVADAAFIKTIPNRNFLVTLRLYGAEDAFYDQTWKPDDVVKVKLEHHHHHH
protein production: not failed

MHLWWRYHLATIIILFAMILTIYFLVPPLFYIEIIGVIFILFLWYIISPGILLRVIKSKKVENEDVLRKFEYALALVQMKKIKLHEINSSKPNAFVLGNFLSYNVIVTRGLLESLNDRELISVLLHELHHIKNRDIEIQLIYVLIVNTFYIYIANYNPLLGLSELVIGVVLLFPVHRLLEKNADIKACRTTNWIPLNLANALVKIGYLSRFLPHEIIRDYSEVDLTLAKETILRDDKKGFIFSTHPALSERLKYISKFIKTL
protein production: failed

— a protein production outcome set (Wang et al. 2014)
